In paper PMC9142731 (2022):

Target: SARS-CoV nucleocapsid protein, recombinant (SARS-CoV, UniProt P59595 1-422)
Experiment: SPR

Chain of SARS-CoV nucleocapsid protein, recombinant (P59595 whole entry): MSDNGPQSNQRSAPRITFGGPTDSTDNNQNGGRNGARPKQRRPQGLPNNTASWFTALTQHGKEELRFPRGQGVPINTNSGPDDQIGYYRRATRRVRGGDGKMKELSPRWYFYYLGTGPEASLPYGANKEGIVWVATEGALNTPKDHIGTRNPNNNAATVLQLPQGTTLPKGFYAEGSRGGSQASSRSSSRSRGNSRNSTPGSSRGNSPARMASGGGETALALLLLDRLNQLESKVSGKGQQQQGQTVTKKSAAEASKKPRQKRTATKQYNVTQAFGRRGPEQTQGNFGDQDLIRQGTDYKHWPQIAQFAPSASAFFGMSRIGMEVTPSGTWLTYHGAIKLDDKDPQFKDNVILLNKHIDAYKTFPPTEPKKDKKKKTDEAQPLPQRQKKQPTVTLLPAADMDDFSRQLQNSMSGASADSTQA

B1: P301-F7 (antibody, V domains shown)
VH: QLQLQESGPGLVKPSETLSLTCTVSGGSISSTSYYWGWIRQPPGKGLEWIGSIYYSGSTYYNPSLKSRVTISVDTSKNQFSLKLSSVTAADTAVYYCARFSLYCSSTSCYENWFDPWGQGTLVTVSS
VL: QSVLTQPPSVSAAPGQKVTISCSGSSSNIGNNYVSWYQQLPGTAPKLLIYDNNKRPSGIPDRFSGSKSGTSATLGITGLQTGDEADYYCGTWDSSLSAGQVVFGGGTKLTVL
  Kd: 33.4 nM
